Test results: patent US20240309112A1 (MITSUBISHI TANABE PHARMA, published 2024)
Residue numbers refer to the chain shown, from its start.

B1: Lib2(4R)-1-47 (antibody, V domains shown)
VH: EVQLLESGGGLVQPGGSLRLSCAASGFTFSTYAMGWVRQAPGKGLEFVAAIRNDGSWTGYGTPYKTRFTISRDNSKNTLYLQMNSLRAEDTAVYYCAKYTGSSGGSIGAWGQGTLVTVSS
VL: SYELTQPPSVSVSPGQTARITCSGGNRNYYYGWYQQKPGQAPVTVIYANDKRPSGIPERFSGSNSGSTTTLTISGVQAEDEADYYCGTATTGKYVFGGGTKLTVLG
notes: Tested as full-length antibody (human IgG1/human k) from Expi293; also called Lib(4R)-1-47
B2: Lib1(6R)-1-39 (antibody, human IgG1, lambda, V domains shown)
VH: B1 VH with Y60T, G61S, T62V, P63N, Y64A
VL: B1 VL
notes: Tested as full-length antibody (human IgG1/human k) from Expi293
B3: Lib1(6R)-2-37 (antibody, human IgG1, lambda, V domains shown)
VH: B1 VH with Y60I, T62Y, P63N, Y64Q, T66S, A97G
VL: B1 VL with T90L
notes: as for B2
B4: Lib2(5R)-2-25 (antibody, human IgG1, lambda, V domains shown)
VH: B1 VH with G61P, T62P, Y64L, T66G
VL: B1 VL with T90Y
notes: as for B2
B5: anti-PAD4 antibody 3-1-39 (antibody, human IgG1, lambda, V domains shown)
VH: B1 VH with Y60T, G61S, T62V, P63N, Y64A, N84S
VL: B1 VL
notes: Lib1(6R)-1-39 with the 84th asparagine of the heavy chain substituted with serine; full-length IgG from ExpiCHO
B6: anti-PAD4 antibody 3-2-37 (antibody, human IgG1, lambda, V domains shown)
VH: B1 VH with Y60I, T62Y, P63N, Y64Q, T66S, N84S, A97G
VL: B1 VL with T90L
notes: Lib1(6R)-2-37 with the 84th asparagine of the heavy chain substituted with serine; full-length IgG from ExpiCHO
B7: anti-PAD4 antibody 4-2-25 (antibody, human IgG1, lambda, V domains shown)
VH: B1 VH with G61P, T62P, Y64L, T66G, N84S
VL: B1 VL with T90Y
notes: Lib2(5R)-2-25 with the 84th asparagine of the heavy chain substituted with serine; full-length IgG from ExpiCHO
B8: humanized anti-PAD4 antibody G8 (antibody, human IgG1, lambda, V domains shown)
VH: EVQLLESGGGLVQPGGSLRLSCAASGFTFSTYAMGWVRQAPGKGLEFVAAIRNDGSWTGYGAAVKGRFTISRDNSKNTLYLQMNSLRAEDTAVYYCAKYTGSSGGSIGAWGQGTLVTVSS
VL: B1 VL with T90D
notes: Full-length IgG, described in WO 2016/143753; also called test antibody G8; parent clone G8
B9: humanized anti-PAD4 antibody G8ss (antibody, human IgG1, lambda, V domains shown)
VH: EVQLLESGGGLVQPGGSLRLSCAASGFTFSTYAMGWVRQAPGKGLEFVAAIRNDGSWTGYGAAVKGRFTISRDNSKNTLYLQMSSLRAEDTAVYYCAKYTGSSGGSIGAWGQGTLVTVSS
VL: B1 VL with T90D
notes: G8 with the 84th asparagine of the heavy chain substituted with serine; full-length IgG; also called test antibody G8ss
B10: anti-PAD4 antibody 2-1-47 (antibody, human IgG1, lambda, V domains shown)
VH: B1 VH with N84S
VL: B1 VL
notes: Lib2(4R)-1-47 with the 84th asparagine of the heavy chain substituted with serine; full-length IgG from ExpiCHO

Experiments:
[1] = target: Human PAD4 (enzyme inhibition assays) (human, UniProt Q9UM07 1-663, limits assumed); test: cell-based or functional assay
Sequence of Human PAD4 (enzyme inhibition assays) (Q9UM07 whole entry): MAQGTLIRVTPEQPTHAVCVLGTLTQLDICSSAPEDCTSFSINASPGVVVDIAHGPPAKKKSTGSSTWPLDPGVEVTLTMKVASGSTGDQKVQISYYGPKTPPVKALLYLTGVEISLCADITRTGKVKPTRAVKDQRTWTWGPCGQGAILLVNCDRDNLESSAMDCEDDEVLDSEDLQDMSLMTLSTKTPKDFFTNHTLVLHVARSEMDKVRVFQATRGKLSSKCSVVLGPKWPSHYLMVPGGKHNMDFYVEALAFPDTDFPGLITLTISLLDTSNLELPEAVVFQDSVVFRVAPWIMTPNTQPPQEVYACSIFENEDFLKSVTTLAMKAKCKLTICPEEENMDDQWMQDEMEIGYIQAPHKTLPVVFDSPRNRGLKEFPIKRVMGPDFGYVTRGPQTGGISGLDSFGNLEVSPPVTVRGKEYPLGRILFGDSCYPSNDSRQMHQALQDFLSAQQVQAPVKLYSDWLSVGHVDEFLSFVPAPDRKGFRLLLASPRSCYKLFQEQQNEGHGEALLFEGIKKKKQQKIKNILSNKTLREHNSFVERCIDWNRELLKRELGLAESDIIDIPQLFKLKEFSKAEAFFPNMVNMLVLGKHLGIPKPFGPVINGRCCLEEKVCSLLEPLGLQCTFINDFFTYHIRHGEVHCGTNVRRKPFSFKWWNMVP

[2] = target: T1, biotin-labeled human PAD4 protein (human, UniProt Q9UM07 1-663, biotin on the Avi tag (biotin ligase BirA)); test: SPR, Biacore T200, biotin-labeled human PAD4 captured on chip, IgG as analyte
T1 construct: also called Avi tag-human PAD4; biotin-labeled PAD4; not shown: Avi tag left on the N-terminal side after the GST tag was cleaved with PreScission Protease
T1 sequence (Q9UM07 whole entry): as above

[3] = target: T1, biotin-labeled human PAD4 protein; test: SPR, Biacore T200, biotin-labeled human PAD4 captured on chip, antibody as analyte, single-cycle, 1:1 model
Experimental: A biotin-labeled human PAD4 protein was immobilized on a sensor chip using a Biotin Capture Kit (GE Healthcare). The PAD4 protein was prepared to 0.5 μg/mL using HBS-EP+ and used as a ligand solution. The ligand solution was added to a flow cell at a flow rate of 10 μL/min for 30 seconds, and then HBS-EP+ was added for 60 seconds. A flow cell to which no ligand solution was added was used as a reference cell. The test antibody was prepared from several hundred pM to several nM using HBS-EP+ and used as an analyte solution. Further, a running buffer solution was used as a blank solution. The blank solution or the analyte solution was added at a flow rate of 30 μL/min for 180 seconds using a single-cycle method, and a dissociation time was 1200 seconds. A sensorgram of the reference cell is subtracted from a sensorgram of the flow cell to which the ligand was added when the blank solution or the analyte solution was added, and further, a sensorgram to which the blank solution was added was subtracted from the sensorgram to which the analyte solution was added, and the result was used for analysis. Binding parameters were calculated using a 1:1 binding model using Biacore T200 Evaluation software (GE Healthcare). […] The dissociation constants of the antibodies 2-1-47, 3-1-39, 3-2-37, and 4-2-25 with improved complementarity determining regions with respect to human PAD4 protein were respectively 31, 48, 73, and 20 pM.

[4] = target: T2, human PAD4 (Cayman Chemical company, Cat 10500) (human, UniProt Q9UM07 1-663); test: SPR, Biacore T200, antibody captured on Protein A chip, 50 nM human PAD4 as analyte; antigen binding amount divided by antibody binding amount
T2 construct: Bought protein
T2 sequence (Q9UM07 whole entry): as above
Experimental: In order to investigate an antigen-binding ability after the storage, antigen-binding activity measurements were performed using a surface plasmon resonance apparatus Biacore T200 (GE Healthcare). Cryopreserved test antibodies and test antibodies stored at 4° C. or 40° C. for 4 weeks were prepared to 10 μg/mL using a running buffer solution HBS-EP+. Using a Series S Sensorchip Protein A (GE Healthcare), a test antibody solution was added to a flow cell 2 at a flow rate of 10 μL/min for 60 seconds and immobilized on a sensor chip. A flow cell 1 was used as a reference cell. A binding amount 55 seconds after the completion of the addition of the test antibody to the flow cell 2 was subtracted from a binding amount of the flow cell 1 to obtain an antibody binding amount. Next, human PAD4 (Cayman Chemical company, Cat 10500) was prepared to 50 nM using HBS-EP+ and used as an analyte solution. The analyte solution was added at a flow rate of 30 μL/min for 120 seconds to obtain a sensorgram of a bound phase. A binding amount 5 seconds before the completion of the addition of the analyte solution to the flow cell 2 was subtracted from a binding amount of the flow cell 1 to obtain an antigen binding amount. Subsequently, a running buffer solution was added for 180 seconds to obtain a sensorgram of a dissociated phase. The measurements were performed at 25° C. The antibody binding amount and the antigen binding amount were calculated using a data analysis program (GE Healthcare, Biacore T200 Evaluation Software v3.1), and the antigen binding amount under each condition was divided by the antibody binding amount to obtain a relative antigen binding amount. There was no change between the relative antigen-binding amount of a cryopreserved test antibody and the relative antigen-binding amount of a test antibody stored at 4° C. The relative antigen-binding amounts of various test antibodies stored at 40° C. for 4 weeks were compared to the relative antigen-binding amounts of the test antibodies stored at 4° C. for 4 weeks, and the antigen-binding activities were determined.

[5] = target: T1, biotin-labeled human PAD4 protein; test: SPR, Biacore T200, biotin-labeled human PAD4 captured on chip, antibody as analyte, single-cycle, 1:1 model; remark: listed apart in the source
Experimental: Binding affinities of the test antibodies G8 and G8ss with respect to human PAD4 proteins were determined by measuring a dissociation constant (KD) in HBS-EP+ using a surface plasmon resonance apparatus Biacore T200 (GE Healthcare). A biotin-labeled human PAD4 protein was immobilized on a sensor chip using a Biotin Capture Kit (GE Healthcare). The PAD4 protein was prepared to 0.25 μg/mL using HBS-EP+ and used as a ligand solution. The ligand solution was added to a flow cell at a flow rate of […] for 30 seconds, and then HBS-EP+ was added for 60 seconds. A flow cell to which no ligand solution was added was used as a reference cell. The test antibody was prepared from several hundred pM to several nM using HBS-EP+ and used as an analyte solution. Further, a running buffer solution was used as a blank solution. The blank solution or the analyte solution was added at a flow rate of 30 μL/min for 180 seconds using a single-cycle method, and a dissociation time was 1200 seconds. A sensorgram of the reference cell is subtracted from a sensorgram of the flow cell to which the ligand was added when the blank solution or the analyte solution was added, and further, a sensorgram to which the blank solution was added was subtracted from the sensorgram to which the analyte solution was added, and the result was used for analysis. Binding parameters were calculated using a 1:1 binding model using Biacore T200 Evaluation software (GE Healthcare).

| Binder | IC50, human PAD4 enzyme inhibitory activity (citrullination of BAEE, colorimetric) [1] | Kd [2] | koff [2] | kon [2] | Kd [3] | koff [3] | kon [3] | antigen-binding activity after storage at 40° C. for 4 weeks, relative to storage at 4° C. [4] | Kd [5] | koff [5] | kon [5] |
| --- | --- | --- | --- | --- | --- | --- | --- | --- | --- | --- | --- |
| B1 | 9.6 nM | 0.0175 nM | 0.000164 s⁻¹ | 9.39e+06 M⁻¹ s⁻¹ | – | – | – | – | – | – | – |
| B2 | 8.7 nM | 0.0183 nM | 0.000108 s⁻¹ | 5.9e+06 M⁻¹ s⁻¹ | – | – | – | – | – | – | – |
| B3 | 13.4 nM | 0.0358 nM | 0.000361 s⁻¹ | 1.01e+07 M⁻¹ s⁻¹ | – | – | – | – | – | – | – |
| B4 | 8.3 nM | 0.0158 nM | 0.000202 s⁻¹ | 1.28e+07 M⁻¹ s⁻¹ | – | – | – | – | – | – | – |
| B5 | 8.8 nM | – | – | – | 0.048 nM | 0.000626 s⁻¹ | 1.3e+07 M⁻¹ s⁻¹ | 93.9% | – | – | – |
| B6 | 15.3 nM | – | – | – | 0.073 nM | 0.000617 s⁻¹ | 8.51e+06 M⁻¹ s⁻¹ | 94.7% | – | – | – |
| B7 | 7.6 nM | – | – | – | 0.02 nM | 0.000299 s⁻¹ | 1.47e+07 M⁻¹ s⁻¹ | 97% | – | – | – |
| B8 | 21.6 nM | 0.208 nM | 0.00146 s⁻¹ | 7.03e+06 M⁻¹ s⁻¹ | – | – | – | – | 0.214 nM | 0.00165 s⁻¹ | 7.7e+06 M⁻¹ s⁻¹ |
| B9 | 20.3 nM | – | – | – | 0.199 nM | 0.00122 s⁻¹ | 6.15e+06 M⁻¹ s⁻¹ | 82.2% | 0.276 nM | 0.00176 s⁻¹ | 6.37e+06 M⁻¹ s⁻¹ |
| B10 | 12.2 nM | – | – | – | 0.031 nM | 0.000507 s⁻¹ | 1.61e+07 M⁻¹ s⁻¹ | 95.6% | – | – | – |
